Source: patent publication US20150368329A1 (ONCOMED PHARMACEUTICALS, published 2015)

B1: anti-VEGF/anti-DLL4 bispecific antibody 219R45-MB-21M18 (bispecific antibody, human IgG2)
heavy 1: QVQLVQSGAEVKKPGASVKVSCKASGYTFTNYWMHWVRQAPGQGLEWMGDINPSNGRTSYKEKFKRRVTLSVDKSSSTAYMELSSLRSEDTAVYFCTIHYDDKYYPLMDYWGQGTLVTVSSASTKGPSVFPLAPCSRSTSESTAALGCLVKDYFPEPVTVSWNSGALTSGVHTFPAVLQSSGLYSLSSVVTVPSSNFGTQTYTCNVDHKPSNTKVDKTVERKCCVECPPCPAPPVAGPSVFLFPPKPKDTLMISRTPEVTCVVVDVSHEDPEVQFNWYVDGVEVHNAKTKPREEQFNSTFRVVSVLTVVHQDWLNGKEYKCKVSNKGLPAPIEKTISKTKGQPREPQVYTLPPSREKMTKNQVSLTCLVKGFYPSDIAVEWESNGQPENNYKTTPPMLKSDGSFFLYSKLTVDKSRWQQGNVFSCSVMHEALHNHYTQKSLSLSPGK
heavy 2: QVQLVQSGAEVKKPGASVKISCKASGYSFTAYYIHWVKQAPGQGLEWIGYISSYNGATNYNQKFKGRVTFTTDTSTSTAYMELRSLRSDDTAVYYCARDYDYDVGMDYWGQGTLVTVSSASTKGPSVFPLAPCSRSTSESTAALGCLVKDYFPEPVTVSWNSGALTSGVHTFPAVLQSSGLYSLSSVVTVPSSNFGTQTYTCNVDHKPSNTKVDKTVERKCCVECPPCPAPPVAGPSVFLFPPKPKDTLMISRTPEVTCVVVDVSHEDPEVQFNWYVDGVEVHNAKTKPREEQFNSTFRVVSVLTVVHQDWLNGKEYKCKVSNKGLPAPIEKTISKTKGQPREPQVYTLPPSREEMTKNQVSLTCLVEGFYPSDIAVEWESNGQPENNYKTTPPMLDSDGSFFLYSELTVDKSRWQQGNVFSCSVMHEALHNHYTQKSLSLSPGK
light: DIVMTQSPDSLAVSLGERATISCRASESVDNYGISFMKWFQQKPGQPPKLLIYAASNQGSGVPDRFSGSGSGTDFTLTISSLQAEDVAVYYCQQSKEVPWTFGGGTKVEIKRTVAAPSVIFPPSDEQLKSGTASVVCLLNNFYPREAKVQWKVDNALQSGNSQESVTEQDSKDSTYSLSSTLTLSKADYEKHKVYACEVTHQGLSSPVTKSFNRGEC
B2: anti-VEGF/anti-DLL4 bispecific antibody 219R45-MB-21R79 (bispecific antibody, human IgG2)
heavy 1: QVQLVQSGAEVKKPGASVKVSCKASGYTFTNYWMHWVRQAPGQGLEWMGDINPSNGRTSYKEKFKRRVTLSVDKSSSTAYMELSSLRSEDTAVYFCTIHYDDKYYPLMDYWGQGTLVTVSSASTKGPSVFPLAPCSRSTSESTAALGCLVKDYFPEPVTVSWNSGALTSGVHTFPAVLQSSGLYSLSSVVTVPSSNFGTQTYTCNVDHKPSNTKVDKTVERKCCVECPPCPAPPVAGPSVFLFPPKPKDTLMISRTPEVTCVVVDVSHEDPEVQFNWYVDGVEVHNAKTKPREEQFNSTFRVVSVLTVVHQDWLNGKEYKCKVSNKGLPAPIEKTISKTKGQPREPQVYTLPPSREKMTKNQVSLTCLVKGFYPSDIAVEWESNGQPENNYKTTPPMLKSDGSFFLYSKLTVDKSRWQQGNVFSCSVMHEALHNHYTQKSLSLSPGK
heavy 2: QVQLVQSGAEVKKPGASVKISCKASGYSFTAYYIHWVKQAPGQGLEWIGYIANYNRATNYNQKFKGRVTFTTDTSTSTAYMELRSLRSDDTAVYYCARDYDYDVGMDYWGQGTLVTVSSASTKGPSVFPLAPCSRSTSESTAALGCLVKDYFPEPVTVSWNSGALTSGVHTFPAVLQSSGLYSLSSVVTVPSSNFGTQTYTCNVDHKPSNTKVDKTVERKCCVECPPCPAPPVAGPSVFLFPPKPKDTLMISRTPEVTCVVVDVSHEDPEVQFNWYVDGVEVHNAKTKPREEQFNSTFRVVSVLTVVHQDWLNGKEYKCKVSNKGLPAPIEKTISKTKGQPREPQVYTLPPSREEMTKNQVSLTCLVEGFYPSDIAVEWESNGQPENNYKTTPPMLDSDGSFFLYSELTVDKSRWQQGNVFSCSVMHEALHNHYTQKSLSLSPGK
light: DIVMTQSPDSLAVSLGERATISCRASESVDNYGISFMKWFQQKPGQPPKLLIYAASNQGSGVPDRFSGSGSGTDFTLTISSLQAEDVAVYYCQQSKEVPWTFGGGTKVEIKRTVAAPSVIFPPSDEQLKSGTASVVCLLNNFYPREAKVQWKVDNALQSGNSQESVTEQDSKDSTYSLSSTLTLSKADYEKHKVYACEVTHQGLSSPVTKSFNRGEC
B3: anti-VEGF/anti-DLL4 bispecific antibody 219R45-MB-21R75 (bispecific antibody, human IgG2)
heavy 1: QVQLVQSGAEVKKPGASVKVSCKASGYTFTNYWMHWVRQAPGQGLEWMGDINPSNGRTSYKEKFKRRVTLSVDKSSSTAYMELSSLRSEDTAVYFCTIHYDDKYYPLMDYWGQGTLVTVSSASTKGPSVFPLAPCSRSTSESTAALGCLVKDYFPEPVTVSWNSGALTSGVHTFPAVLQSSGLYSLSSVVTVPSSNFGTQTYTCNVDHKPSNTKVDKTVERKCCVECPPCPAPPVAGPSVFLFPPKPKDTLMISRTPEVTCVVVDVSHEDPEVQFNWYVDGVEVHNAKTKPREEQFNSTFRVVSVLTVVHQDWLNGKEYKCKVSNKGLPAPIEKTISKTKGQPREPQVYTLPPSREKMTKNQVSLTCLVKGFYPSDIAVEWESNGQPENNYKTTPPMLKSDGSFFLYSKLTVDKSRWQQGNVFSCSVMHEALHNHYTQKSLSLSPGK
heavy 2: QVQLVQSGAEVKKPGASVKISCKASGYSFTAYYIHWVKQAPGQGLEWIGYIAGYKDATNYNQKFKGRVTFTTDTSTSTAYMELRSLRSDDTAVYYCARDYDYDVGMDYWGQGTLVTVSSASTKGPSVFPLAPCSRSTSESTAALGCLVKDYFPEPVTVSWNSGALTSGVHTFPAVLQSSGLYSLSSVVTVPSSNFGTQTYTCNVDHKPSNTKVDKTVERKCCVECPPCPAPPVAGPSVFLFPPKPKDTLMISRTPEVTCVVVDVSHEDPEVQFNWYVDGVEVHNAKTKPREEQFNSTFRVVSVLTVVHQDWLNGKEYKCKVSNKGLPAPIEKTISKTKGQPREPQVYTLPPSREEMTKNQVSLTCLVEGFYPSDIAVEWESNGQPENNYKTTPPMLDSDGSFFLYSELTVDKSRWQQGNVFSCSVMHEALHNHYTQKSLSLSPGK
light: DIVMTQSPDSLAVSLGERATISCRASESVDNYGISFMKWFQQKPGQPPKLLIYAASNQGSGVPDRFSGSGSGTDFTLTISSLQAEDVAVYYCQQSKEVPWTFGGGTKVEIKRTVAAPSVIFPPSDEQLKSGTASVVCLLNNFYPREAKVQWKVDNALQSGNSQESVTEQDSKDSTYSLSSTLTLSKADYEKHKVYACEVTHQGLSSPVTKSFNRGEC
notes: Monovalent/bispecific IgG2 heterodimer
B4: anti-VEGF antibody 219R45 (parental, IgG format) (antibody, V domains shown)
VH: QVQLVQSGAEVKKPGASVKVSCKASGYTFTNYWMHWVRQAPGQGLEWMGDINPSNGRTSYKEKFKRRVTLSVDKSSSTAYMELSSLRSEDTAVYFCTIHYDDKYYPLMDYWGQGTLVTVSS
VL: DIVMTQSPDSLAVSLGERATISCRASESVDNYGISFMKWFQQKPGQPPKLLIYAASNQGSGVPDRFSGSGSGTDFTLTISSLQAEDVAVYYCQQSKEVPWTFGGGTKVEIKR

How the values were obtained:
[1] = biological target: T1, biotin-DLL4-hFc (UniProt Q9NR61 27-522, limits assumed, biotinylated); experiment: bridging ELISA: the signal needs binding to both coated VEGF and biotin-DLL4-hFc (2 ug/ml); antibody concentration varied
T1 construct: not shown: human Fc ('hFc')
T1 sequence (Q9NR61 27-522 limits assumed): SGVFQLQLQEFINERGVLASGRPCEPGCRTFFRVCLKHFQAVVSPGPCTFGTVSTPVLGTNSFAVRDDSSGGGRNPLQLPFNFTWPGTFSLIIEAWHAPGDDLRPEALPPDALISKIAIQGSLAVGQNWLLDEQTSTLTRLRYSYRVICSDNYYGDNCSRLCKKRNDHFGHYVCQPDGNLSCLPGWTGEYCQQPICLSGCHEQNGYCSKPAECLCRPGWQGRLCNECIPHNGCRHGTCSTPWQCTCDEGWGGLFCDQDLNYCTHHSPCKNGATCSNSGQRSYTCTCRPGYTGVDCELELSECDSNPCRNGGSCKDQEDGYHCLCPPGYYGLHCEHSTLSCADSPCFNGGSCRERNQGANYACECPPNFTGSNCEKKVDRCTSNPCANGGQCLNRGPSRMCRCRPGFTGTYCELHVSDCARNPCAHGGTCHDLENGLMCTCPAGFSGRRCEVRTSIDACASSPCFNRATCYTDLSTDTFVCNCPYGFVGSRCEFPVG
Protocol: (§1) FIG. 5. Bispecific antibody ELISA. Bispecific antibodies 219R45-MB-21M18, 219R45-MB-21R79, 219R45-MB-21R75, and 219R45-MB-21R83 were diluted in blocking buffer (lx PBS, 0.1% gelatin, 0.1% Polysorbate-20, pH 7.4) containing 2 μg/ml biotin-DLL4-hFc. 219R45-MB-21M18 (open circles), 219R45-MB-21R79 (open squares), 219R45-MB-21R75 (open triangles), and 219R45-MB-21R83 (open diamonds) in comparison to a reference anti-VEGF/anti-DLL4 bispecific antibody (solid circles) is shown. The antibodies were serially diluted 3-fold from 500 ng/ml to 0.008 ng/ml. The antibody samples were incubated for 2 hours in blocking buffer containing the biotin-DLL4-hFc. After incubation, the antibody samples were transferred to a VEGF-coated assay plate (100 ul/well) and incubated for 2 hours. Streptavidin-HRP was added to each well and incubated for 1 hr. TMB substrate was added to the wells with a 10 minute color development and the reaction was stopped with 2M sulfuric acid. Absorbance was read at 450-650 nm and the data analyzed using the 4-parameter fit within the Softmax Pro analysis program.
(§2) VEGF (ATGEN, South Korea) was coated onto Nunc maxisorb plates at 2ug/ml (100 μl/well) and incubated overnight at 2-8° C. Bispecific antibodies 219R45-MB-21M18, 219R45-MB-21R79, 219R45-MB-21R75, and 219R45-MB-21RS3 were diluted in blocking buffer (1×PBS, 0.1% gelatin, 0.1% Polysorbate-20, pH 7.4) containing 2 μg/ml biotin-DLL4-hFc. The antibodies were serially diluted 3-fold from 500 ng/ml to 0.008 ng/ml. The antibody samples were incubated for 2 hours in blocking buffer containing the biotin-DLL4-hFc. After incubation, the antibody samples were transferred to the VEGF-coated assay plate (100 μl/well) and incubated for 2 hours. Streptavidin-HRP (Jackson ImmunoResearch, West Grove, Pa.) was added to each well and incubated for 1 hr. TMB substrate was added to the wells with a 10 minute color development and the reaction was stopped with 2M sulfuric acid. Absorbance was read at 450-650 nm and the data analyzed using the 4-parameter fit within the Softmax Pro analysis program (Molecular Devices, Sunnyvale, Calif.).

[2] = biological target: VEGF (ATGEN, South Korea) coated on ELISA plates (UniProt P15692-4 27-191, limits assumed); experiment: as above
Chain of VEGF (ATGEN, South Korea) coated on ELISA plates (P15692 other isoform, or with tags, fused parts or gaps limits assumed): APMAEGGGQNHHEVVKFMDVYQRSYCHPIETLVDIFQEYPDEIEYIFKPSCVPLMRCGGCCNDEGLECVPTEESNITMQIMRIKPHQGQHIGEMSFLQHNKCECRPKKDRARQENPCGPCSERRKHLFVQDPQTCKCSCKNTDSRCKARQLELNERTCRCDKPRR
Protocol: as §1, §2

[3] = biological target: recombinant mouse VEGF165 (mouse) (UniProt Q00731); experiment: SPR (Biacore 2000); biotinylated VEGF165 on streptavidin chip, antibody injected 100-0.78 nM

Binder | EC50 (read off the curve) [1] | EC50 (read off the curve) [2] | Kd [3]
B1 | ~4 ng/mL | ~4 ng/mL | 25.5 nM
B2 | – | – | 12.5 nM
B3 | ~0.7 ng/mL | ~0.7 ng/mL | –
B4 | – | – | 22.9 nM
